Source: patent publication US20230313199A1, “TARGET FOR MODULATING BODY MASS” (Massachusetts Institute of Technology, priority 2020, published 2023)
Like-named read-outs stand apart in the source and are kept apart here. Residues, ends and D or L forms follow the SMILES beside them. *: point of attachment. Cbz = O=C(OCc1ccccc1)*

B6: endogenous MFSD7C of mouse bone marrow-derived macrophages (other, UniProt Q91X85 1-551, looked up)
chain: MVNESLNQEESNDRPAPESEFQMDTSYSTQPSGSIHPSVSGHPSVSGHPSVSGHPSVSIHPSVSIDPSVSVRPSSSALPSTLAQPSGLTHHSSLVREDSVIKVSKRRWVVVLVFSCYSLCNAFQWIQYGSINNIFMNFYGVSAFAIDWLSMCYMLTYIPLLLPVAWMLEKFGLRTIAITGSALNCLGAWVKLGSLEPHLFPVTMVGQVICSVAQVFILGMPSRIASVWFGADEVSTACSVAVFGNQLGIAIGFLVPPVLVPNIKDPEKLAYHISIMFYIIGGVATFLFILVIIVFKEKPKHPPSRAQSLSYALATTDASYLSSIVRLFKNLNFVLLVITYGLNAGAFYALSTLLNRMVILHFPGEEVNAGRIGLTIVIAGMFGAMISGIWLDKSKTYKETTLVVYIMTLVGMVVYTFTLNLNHLWVVFITAGTLGFFMTGYLPLGFEFAVELTYPESEGVSSGLLNVSAQVFGIVFTISQGQIIDNHGTMFGNIFLCVFLALGSALTAFIKSDLRRQRANKDAPETKVQEEEEEEEGSNTSKVPVVSEAHL

Assays:
[1] = biological target: endogenous human SERCA2b of THP-1 cells (human) (UniProt P16615); test: cell-based or functional assay
[2] = biological target: T1, MFSD7C and SERCA2b (Mus musculus, UniProt Q91X85); test: Co-IP of MFSD7C and SERCA2b in transfected 293T cells; type: cell-based, murine; conditions: 293T cells in the presence of MG132; none co-precipitated without
T1 construct: expressed in transfected cells; called 293T
Protocol: (§1) FIGS. 5A-5F show MFSD7C and heme regulate thermogenesis through SERCA2b in THP-1 cells. […] 30 hours later, MG132 was added into half of the cells and the other half was not treated. Another 35 hours later, some cells were treated with 40 μM heme for 1 hour before lysis. Cell lysates were immunoprecipitated with anti-FLAG antibody, and eluted, followed by anti-HA immunoprecipitation and elution. Total cell lysate and elute were subjected to Western blotting and probed with anti-SERCA2b or anti-MFSD7C antibodies. Shown are representative data from one of three experiments. […] 24 hrs later, cells were either not treated or treated with 10 μM MG132 for either 6 or 12 hours. The cells were lysed and subjected to FLAG pull-down and blotted with anti-MFSD7C, anti-SERCA2b and anti-ubiquitin antibodies. Shown are representative data from one of three experiments. […] Parental THP-1 cells were either not treated or treated with heme before lysis. Shown are representative data from one of four experiments. […] Shown are representative data from one of two experiments. […] Cells were washed and treated with 40 μM heme for one hour before flow cytometry. Representative FPT histograms from one of three experiments are shown. […] Shown are representative FPT histograms from one of three experiments. […]

[3] = test system: SERCA2b; test: SERCA2b level and ubiquitination by pull-down and Western blotting in transfected 293T cells; type: cell-based, murine
Protocol: as §1

[4] = biological target: T2, NTD of human MFSD7C (Homo sapiens, UniProt Q9UPI3); test: Isothermal titration calorimetry of NTD binding to heme; conditions: ITC, 25° C., 3-site sequential binding model
T2 construct: Plasmid harboring GST-His-tag-SUMO-NTD (amino acids 1-84); GST-His-tag-SUMO (N, cleaved yes); made in house; host or cells: Escherichia coli Lemo21(DE3)
T2 sequence (Q9UPI3 1-84): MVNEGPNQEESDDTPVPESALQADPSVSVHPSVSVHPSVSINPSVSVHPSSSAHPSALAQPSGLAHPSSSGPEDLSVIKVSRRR

[5] = biological target: T3, HP motif peptide (Homo sapiens, UniProt Q9UPI3); test: Isothermal titration calorimetry of HP motif peptide binding to heme (one-site model); conditions: synthetic 14-amino acid HP motif peptide, one-site binding model
T3 construct: a synthetic 14-amino acid HP motif peptide; made in house; host or cells: chemical solid-phase synthesis (Koch Institute Biopolymers & Proteomics Core)

[6] = biological target: B6; test: co-IP of endogenous proteins, mouse bone marrow-derived macrophage lysate
[7] = biological target: T4, HA-tagged murine MFSD7C (mouse, UniProt Q91X85 1-551); test: co-IP and Western blot, co-transfected 293FT cells, without heme (less or very little with 10 or 40 µM heme)
T4 construct: Expressed by transfection in 293FT / HEK 293T cells; also called HA-MFSD7C; pCMV6-AN-3HA-MFSD7C; not shown: N-terminal HA tag from vector pCMV6-AN-3HA
T4 sequence (looked up): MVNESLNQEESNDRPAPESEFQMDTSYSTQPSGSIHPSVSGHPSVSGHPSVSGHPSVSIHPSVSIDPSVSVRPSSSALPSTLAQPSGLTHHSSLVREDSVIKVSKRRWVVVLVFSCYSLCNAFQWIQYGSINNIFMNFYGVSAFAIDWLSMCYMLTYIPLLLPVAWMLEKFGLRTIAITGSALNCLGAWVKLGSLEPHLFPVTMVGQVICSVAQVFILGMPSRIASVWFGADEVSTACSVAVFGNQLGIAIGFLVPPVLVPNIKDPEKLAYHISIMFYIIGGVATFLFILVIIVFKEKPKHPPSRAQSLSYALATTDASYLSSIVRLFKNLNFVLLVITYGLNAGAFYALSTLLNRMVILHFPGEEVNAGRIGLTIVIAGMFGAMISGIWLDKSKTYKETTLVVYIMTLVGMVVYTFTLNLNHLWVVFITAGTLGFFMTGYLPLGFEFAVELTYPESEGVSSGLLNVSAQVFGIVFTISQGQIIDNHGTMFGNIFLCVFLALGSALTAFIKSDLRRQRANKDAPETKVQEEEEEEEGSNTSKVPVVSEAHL
Protocol: (§2) Co-transfection and immunoprecipitation. For co-IP, HA-tagged MFSD7C was co-transfected with FLAG-tagged HMOX1 (Origene Catalog No. MR203944), CYC1, COX4I1, NDUFA4, ATP5h, ATP5c1 into 293FT cells using TransIT®-LT1 Transfection Reagent (Mirus). Thirty-six hours after transfection, the cells were lysed using cold Lysis Buffer containing 20 mM Tris-HCl (pH 7.4), 150 mM NaCl, 0.1% NP-40, 10% glycerol, proteinase inhibitor (Sigma Catalog No. 4693132001), and phosphatase inhibitors (Sigma Catalog No. 4906845001). The clear supernatants from the lysate were incubated with M2-magnetic beads conjugated with anti-FLAG antibody (Sigma Catalog No. M8823) for 2 hours at 4° C. Then the beads were washed twice and eluted by the 3× FLAG peptides (Sigma Catalog No. F4799).
(§3) To determine the effect of heme on MFSD7C interactions with ETC components, HMOX1 or SERCA2b, 293FT cells were transiently transfected with HA-tagged murine MFSD7C and FLAG-tagged murine CYC1, NDUFA4, COX4i1, ATP5h, ATP5c1, HMOX1 or SERCA2b. 35 hrs later, co-transfected cells were incubated with DMSO (vehicle) or 10 μM or 40 μM of heme for one hour before lysis. Cell lysates were precipitated with anti-HA antibody, eluted with HA peptide, further precipitated with anti-FLAG antibody, eluted with FLAG peptide, and then subjected to Western blotting with anti-HA and anti-FLAG antibodies. Cells were treated with proteasome inhibitor MG132 for co-IP between MFSD7C and SERCA2b.

[8] = biological target: T4, HA-tagged murine MFSD7C; test: co-IP and Western blot, co-transfected 293FT cells, with or without 10 or 40 µM heme
Protocol: as §2
as §3, with “Cells were treated with proteasome inhibitor MG132 for co-IP between MFSD7C and SERCA2b.” left out

[9] = biological target: T5, endogenous mouse SERCA2b (ATP2a2) (mouse, UniProt O55143 1-1044); test: co-IP of endogenous proteins, mouse bone marrow-derived macrophages
T5 construct: also called endogenous SERCA2b
T5 sequence (O55143 whole entry): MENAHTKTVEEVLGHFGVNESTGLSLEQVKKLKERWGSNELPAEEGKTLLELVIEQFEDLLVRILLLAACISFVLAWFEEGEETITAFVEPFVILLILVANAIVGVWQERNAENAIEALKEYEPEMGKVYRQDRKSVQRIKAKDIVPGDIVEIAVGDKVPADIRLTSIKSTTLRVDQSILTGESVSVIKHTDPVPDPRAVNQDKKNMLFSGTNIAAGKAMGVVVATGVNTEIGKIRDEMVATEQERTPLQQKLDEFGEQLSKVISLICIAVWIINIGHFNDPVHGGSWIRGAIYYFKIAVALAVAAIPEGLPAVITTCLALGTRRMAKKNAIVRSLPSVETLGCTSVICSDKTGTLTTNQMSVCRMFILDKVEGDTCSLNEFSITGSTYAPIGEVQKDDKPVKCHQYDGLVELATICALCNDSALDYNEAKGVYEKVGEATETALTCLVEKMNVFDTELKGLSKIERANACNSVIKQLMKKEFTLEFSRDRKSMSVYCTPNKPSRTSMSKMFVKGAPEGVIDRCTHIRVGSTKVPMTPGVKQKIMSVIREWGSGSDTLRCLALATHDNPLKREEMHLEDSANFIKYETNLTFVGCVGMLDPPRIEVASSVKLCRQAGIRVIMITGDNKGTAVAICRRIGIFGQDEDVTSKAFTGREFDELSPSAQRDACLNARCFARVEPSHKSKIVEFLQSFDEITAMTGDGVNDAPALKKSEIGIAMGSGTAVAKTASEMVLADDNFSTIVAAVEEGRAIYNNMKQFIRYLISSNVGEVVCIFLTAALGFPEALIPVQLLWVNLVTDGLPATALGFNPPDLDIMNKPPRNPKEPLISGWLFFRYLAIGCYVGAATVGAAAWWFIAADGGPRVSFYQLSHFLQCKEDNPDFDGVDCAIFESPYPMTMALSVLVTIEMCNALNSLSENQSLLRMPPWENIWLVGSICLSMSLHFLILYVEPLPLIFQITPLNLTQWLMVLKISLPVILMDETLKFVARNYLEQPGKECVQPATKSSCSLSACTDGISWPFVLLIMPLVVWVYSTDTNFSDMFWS

Chain of endogenous human SERCA2b of THP-1 cells (human) (P16615 whole entry): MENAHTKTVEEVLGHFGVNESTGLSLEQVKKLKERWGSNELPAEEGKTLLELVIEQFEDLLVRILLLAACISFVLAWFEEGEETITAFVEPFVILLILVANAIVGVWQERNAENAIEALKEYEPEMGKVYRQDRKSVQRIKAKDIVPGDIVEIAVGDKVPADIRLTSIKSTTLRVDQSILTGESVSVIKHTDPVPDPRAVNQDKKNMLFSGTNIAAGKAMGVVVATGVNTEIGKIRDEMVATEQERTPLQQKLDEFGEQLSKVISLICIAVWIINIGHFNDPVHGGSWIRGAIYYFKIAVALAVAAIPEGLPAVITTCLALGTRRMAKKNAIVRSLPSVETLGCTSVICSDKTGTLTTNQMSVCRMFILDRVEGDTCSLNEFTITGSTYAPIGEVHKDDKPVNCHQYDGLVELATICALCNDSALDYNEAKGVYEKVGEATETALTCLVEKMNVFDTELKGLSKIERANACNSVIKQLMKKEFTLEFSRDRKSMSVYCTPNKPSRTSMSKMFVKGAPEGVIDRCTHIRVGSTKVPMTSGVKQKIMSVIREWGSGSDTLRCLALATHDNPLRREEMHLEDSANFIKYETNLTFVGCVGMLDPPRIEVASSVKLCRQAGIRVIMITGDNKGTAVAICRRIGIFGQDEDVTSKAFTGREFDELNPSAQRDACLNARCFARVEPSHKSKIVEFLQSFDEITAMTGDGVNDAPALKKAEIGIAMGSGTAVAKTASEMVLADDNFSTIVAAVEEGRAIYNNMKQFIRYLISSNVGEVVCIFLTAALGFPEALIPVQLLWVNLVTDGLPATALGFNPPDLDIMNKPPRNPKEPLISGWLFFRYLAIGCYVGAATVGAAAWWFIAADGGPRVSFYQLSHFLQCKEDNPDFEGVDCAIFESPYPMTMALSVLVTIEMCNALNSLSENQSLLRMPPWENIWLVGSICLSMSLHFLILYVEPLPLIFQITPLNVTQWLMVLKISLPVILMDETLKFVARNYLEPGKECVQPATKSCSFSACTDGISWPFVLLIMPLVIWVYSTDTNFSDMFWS

“endogenous human MFSD7C of THP-1 cells (from UniProt Q9UPI3 1-526)” showed a Pearson's correlation coefficient value (co-localization, THP-1 cells after 40 µM heme for 1 hour) [1] of 0.67 and a Pearson's correlation coefficient value (co-localization, confocal microscopy of THP-1 cells) [1] of 0.89.

In the case of `CC(C)C[C@@H](C=O)NC(=O)[C@H](CC(C)C)NC(=O)[C@H](CC(C)C)NC(=O)OCc1ccccc1` [MG132] (Cbz-Leu-Leu-Leu-aldehyde), the “SERCA2b co-precipitated with MFSD7C” value [2] is reported as “an appreciable level was co-precipitated with MFSD7C”, the “full-length and ubiquitinated SERCA2b precipitated” value ([3]; 10 μM MG132 for 6 or 12 hours, longer treatment) is reported as “more full-length and ubiquitinated SERCA2b was precipitated” and the “level of SERCA2b detected” value ([3]; presence vs absence of MG132) is reported as “significantly higher level of SERCA2b was detected”.

`C=CC1=C(C)C2=Cc3c(C=C)c(C)c4[n]3[Fe][n]3c(c(C)c(CCC(=O)O)c3=CC3=NC(=C4)C(C)=C3CCC(=O)O)=CC1=N2` [heme] showed a Kd ([4]; two strong of three heme sites on NTD, read-out: KD, two strong binding sites) of about 1 µM, a Kd ([4]; weaker of three heme sites on NTD, read-out: KD, one weaker site) of about 220 µM and a Kd [5] of about 1000 nM.

B1: endogenous HMOX1 of mouse bone marrow-derived macrophages (enzyme, UniProt P14901 1-289, looked up)
chain: MERPQPDSMPQDLSEALKEATKEVHIQAENAEFMKNFQKGQVSREGFKLVMASLYHIYTALEEEIERNKQNPVYAPLYFPEELHRRAALEQDMAFWYGPHWQEIIPCTPATQHYVKRLHEVGRTHPELLVAHAYTRYLGDLSGGQVLKKIAQKAMALPSSGEGLAFFTFPNIDSPTKFKQLYRARMNTLEMTPEVKHRVTEEAKTAFLLNIELFEELQVMLTEEHKDQSPSQMASLRQRPASLVQDTAPAETPRGKPQISTSSSQTPLLQWVLTLSFLLATVAVGIYAM
B1: binds [6].

B2: FLAG-tagged murine CYC1 (other, mouse, UniProt Q9D0M3 85-325, looked up)
chain: SDLELHPPSYPWSHRGLLSSLDHTSIRRGFQVYKQVCSSCHSMDYVAYRHLVGVCYTEEEAKALAEEVEVQDGPNDDGEMFMRPGKLSDYFPKPYPNPEAARAANNGALPPDLSYIVRARHGGEDYVFSLLTGYCEPPTGVSLREGLYFNPYFPGQAIGMAPPIYTEVLEYDDGTPATMSQVAKDVATFLRWASEPEHDHRKRMGLKMLLMMGLLLPLTYAMKRHKWSVLKSRKLAYRPPK
notes: Complex III component; expressed by transfection; also called pCMV6-AC-DDK-Cyc1; not shown: C-terminal FLAG (DDK) tag
B2: binds [7].

B3: FLAG-tagged murine NDUFA4 (other, mouse, UniProt Q62425 1-82, looked up)
chain: MLRQILGQAKKHPSLIPLFVFIGAGGTGAALYVMRLALFNPDVSWDRKNNPEPWNKLGPNEQYKFYSVNVDYSKLKKEGPDF
notes: Complex IV component; expressed by transfection; also called pCMV6-AC-DDK-Ndufa4; not shown: C-terminal FLAG (DDK) tag
B3: binds [7].

B4: FLAG-tagged murine ATP5c1 (other, mouse, UniProt Q91VR2 26-298, looked up)
chain: ATLKDITRRLKSIKNIQKITKSMKMVAAAKYARAERELKPARVYGTGSLALYEKADIKAPEDKKKHLIIGVSSDRGLCGAIHSSVAKQMKNEVAALTAAGKEVMIVGVGEKIKGILYRTHSDQFLVSFKDVGRKPPTFGDASVIALELLNSGYEFDEGSIIFNQFKSVISYKTEEKPIFSLNTIATAETMSIYDDIDADVLQNYQEYNLANLIYYSLKESTTSEQSARMTAMDNASKNASDMIDKLTLTFNRTRQAVITKELIEIISGAAALD
notes: Complex V component; expressed by transfection; also called pCMV6-AC-DDK-ATP5c1; not shown: C-terminal FLAG (DDK) tag
B4: binds [7].

B5: FLAG-tagged murine HMOX1 (heme oxygenase-1) (enzyme, mouse, UniProt P14901 1-289, looked up)
chain: MERPQPDSMPQDLSEALKEATKEVHIQAENAEFMKNFQKGQVSREGFKLVMASLYHIYTALEEEIERNKQNPVYAPLYFPEELHRRAALEQDMAFWYGPHWQEIIPCTPATQHYVKRLHEVGRTHPELLVAHAYTRYLGDLSGGQVLKKIAQKAMALPSSGEGLAFFTFPNIDSPTKFKQLYRARMNTLEMTPEVKHRVTEEAKTAFLLNIELFEELQVMLTEEHKDQSPSQMASLRQRPASLVQDTAPAETPRGKPQISTSSSQTPLLQWVLTLSFLLATVAVGIYAM
notes: Expressed by transfection; also called pCMV6-AC-DDK-HMOX1; not shown: C-terminal FLAG (DDK) tag
B5: binds [8].

B6: binds [9].
